From publication PMC12551704, “Metabolic regulation of behavior by the intestinal enzyme FMO-2” (Science Advances, 2025)
Values belong to the molecule of their own block, whether it stands above or below them.

Experiments:
FMO-2 = target: T1, FMO-2 (Caenorhabditis elegans, UniProt G5EBJ9); assay: NADPH consumption at […] nm, Michaelis-Menten fit; type: biochemical; conditions: 0.5 mM NADPH, excess FAD, 25 mM sodium phosphate pH 8.5, 0.5 mM DETAPAC, 30 C; 0.1-10 mM substrate
T1 construct: purified FMO-2 protein purchased from GenScript
T1 sequence (G5EBJ9 1-529): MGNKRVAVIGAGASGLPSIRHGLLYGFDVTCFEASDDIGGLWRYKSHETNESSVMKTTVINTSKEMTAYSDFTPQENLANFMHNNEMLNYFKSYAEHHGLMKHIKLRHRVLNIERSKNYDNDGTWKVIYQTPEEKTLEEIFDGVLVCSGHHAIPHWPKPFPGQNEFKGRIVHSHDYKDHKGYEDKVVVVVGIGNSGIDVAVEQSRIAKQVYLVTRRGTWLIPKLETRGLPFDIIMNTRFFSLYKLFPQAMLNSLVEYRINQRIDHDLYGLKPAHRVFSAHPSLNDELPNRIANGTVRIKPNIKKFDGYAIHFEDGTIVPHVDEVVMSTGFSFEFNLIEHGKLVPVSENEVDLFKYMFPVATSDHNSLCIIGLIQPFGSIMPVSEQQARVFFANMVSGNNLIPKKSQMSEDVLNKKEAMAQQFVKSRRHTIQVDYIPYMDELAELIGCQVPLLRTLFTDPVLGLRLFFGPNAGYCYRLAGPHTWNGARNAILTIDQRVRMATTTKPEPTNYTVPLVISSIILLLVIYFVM

purified protein = substrate: CC(=O)C(=O)O; assay: purified protein; type: biochemical, Caenorhabditis elegans; conditions: 0.5 mM NADPH, excess FAD, 25 mM sodium phosphate pH 8.5, 0.5 mM DETAPAC, 30 C

Km (FMO-2): 880 ± 430 µM
Molecule: N[C@@H](Cc1c[nH]c2ccccc12)C(=O)O [tryptophan]

B1: FMO-2 (Caenorhabditis elegans) (protein)
chain: T1 sequence (G5EBJ9 1-529)
notes: purified FMO-2 protein purchased from GenScript
Km (purified protein): 590 ± 290 µM
kcat (purified protein): 35 ± 1 s⁻¹
kcat/Km (purified protein): 59000 M⁻¹ s⁻¹
